Where only a bound is given, the exact number is not on record here.

Consider one molecule from patent publication US12060433B2, “CD73 inhibitor and A2A/A2B adenosine receptor inhibitor combination therapy” (Incyte Corporation, priority 2020, dated 2024).

Series [1] has as its target T1, human CD73 (SEQ ID NO: 70) (Homo sapiens, UniProt P21589).
T1 construct: purchased BPS Bioscience
T1 sequence (P21589 27-549): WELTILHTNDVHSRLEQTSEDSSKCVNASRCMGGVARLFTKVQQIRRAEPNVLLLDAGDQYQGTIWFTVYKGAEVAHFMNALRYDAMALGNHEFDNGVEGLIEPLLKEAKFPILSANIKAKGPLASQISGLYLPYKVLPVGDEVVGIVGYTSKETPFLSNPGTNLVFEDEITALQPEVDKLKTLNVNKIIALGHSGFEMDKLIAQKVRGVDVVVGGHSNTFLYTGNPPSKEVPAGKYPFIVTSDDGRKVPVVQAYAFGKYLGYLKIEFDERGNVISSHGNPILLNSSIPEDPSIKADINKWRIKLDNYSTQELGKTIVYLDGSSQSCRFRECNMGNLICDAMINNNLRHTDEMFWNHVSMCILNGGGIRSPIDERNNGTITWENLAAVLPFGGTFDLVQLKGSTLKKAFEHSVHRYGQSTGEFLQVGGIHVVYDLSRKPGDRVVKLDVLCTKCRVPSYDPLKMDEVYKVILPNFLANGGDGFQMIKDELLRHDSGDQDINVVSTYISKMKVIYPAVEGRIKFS
The series can be described thus: SPR (Biacore 8K) binding affinity and kinetics to human CD73. The protocol: (§1) The SPR running buffer (10 mM HEPES, 150 mM NaCl, 3 mM EDTA and 0.05% v/v Surfactant P20, pH 7.4) was prepared from 10×HBS-EP Buffer (GE Healthcare). Anti-human Fc antibodies (GE Healthcare) were immobilized via amine coupling on all sixteen flow cells of an S series sensor chip CM5 (GE Healthcare). The immobilization levels were ˜9000 RU for all flow cells. The desired capturing level of anti-CD73 antibody was achieved by flowing appropriate concentration of anti-CD73 antibody through the active flow cell of each channel. The non-cleavable ADP analogue APCP (adenosine-5′-(α,β-methylene) diphosphate) with the presence of Zn^2+ can be used to shift the CD73 conformational equilibrium from open towards closed. Therefore, recombinant CD73 was incubated with SPR running buffer in the presence of 100 μM APCP and 10 μM ZnCl2 (closed SPR running buffer) to study the binding of anti-CD73 antibody to the CD73 in the closed conformation. To achieve this, the ABA injection feature in Biacore 8K was used. For open conformation, the ABA injection sequence started with 60 seconds injection of running buffer. Then, CD73 3-fold serial dilution concentration series prepared from CD73 stock (BPS Bioscience) and running buffer were injected for 180 seconds immediately followed by running buffer for 240 seconds. For closed conformation, the normal SPR running buffer was replaced by closed SPR running buffer. Surface was regenerated with 30 seconds injection of 3 M MgCl2. […] Binding affinities and kinetic association and dissociation rate constants to human, cynomolgus, and mouse CD73 in either open or closed conformations are shown in Table 8 below. The results in Table 8 ensure cynomolgus pharmacokinetic data will reflect human pharmacokinetic data.
(§2) Binding affinities and kinetic association and dissociation rate constants to human, cynomolgus, and mouse CD73 in either open or closed conformations are shown in Table 9 below.

For series [2], the system named is cynomolgus CD73 (SEQ ID NO: 72). The series can be described thus: SPR (Biacore 8K) binding affinity and kinetics to cynomolgus CD73. The protocol:
as §1, §2

Series [3] deals with T2, mouse CD73 (SEQ ID NO: 71) (Mus musculus, UniProt Q61503).
T2 construct: purchased BPS Bioscience
T2 sequence (Q61503 29-551): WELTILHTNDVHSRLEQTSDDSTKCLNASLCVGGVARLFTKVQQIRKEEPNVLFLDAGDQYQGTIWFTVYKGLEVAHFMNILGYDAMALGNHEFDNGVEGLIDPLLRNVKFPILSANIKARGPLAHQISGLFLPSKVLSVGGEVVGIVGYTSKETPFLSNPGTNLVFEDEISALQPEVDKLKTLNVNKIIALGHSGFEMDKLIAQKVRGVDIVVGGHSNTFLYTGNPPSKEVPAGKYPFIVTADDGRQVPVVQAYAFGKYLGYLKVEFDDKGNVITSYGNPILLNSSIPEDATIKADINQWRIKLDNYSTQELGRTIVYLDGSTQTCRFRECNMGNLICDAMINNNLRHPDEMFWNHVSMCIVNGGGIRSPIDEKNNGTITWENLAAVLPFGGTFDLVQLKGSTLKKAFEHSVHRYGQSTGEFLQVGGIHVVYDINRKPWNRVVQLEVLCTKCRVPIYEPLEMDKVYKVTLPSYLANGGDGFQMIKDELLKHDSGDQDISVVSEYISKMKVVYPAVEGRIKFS
The series can be described thus: SPR (Biacore 8K) binding affinity and kinetics to mouse CD73. The protocol:
The SPR running buffer (10 mM HEPES, 150 mM NaCl, 3 mM EDTA and 0.05% v/v Surfactant P20, pH 7.4) was prepared from 10×HBS-EP Buffer (GE Healthcare). Anti-human Fc antibodies (GE Healthcare) were immobilized via amine coupling on all sixteen flow cells of an S series sensor chip CM5 (GE Healthcare). The immobilization levels were ˜9000 RU for all flow cells. The desired capturing level of anti-CD73 antibody was achieved by flowing appropriate concentration of anti-CD73 antibody through the active flow cell of each channel. The non-cleavable ADP analogue APCP (adenosine-5′-(α,β-methylene) diphosphate) with the presence of Zn^2+ can be used to shift the CD73 conformational equilibrium from open towards closed. Therefore, recombinant CD73 was incubated with SPR running buffer in the presence of 100 μM APCP and 10 μM ZnCl2 (closed SPR running buffer) to study the binding of anti-CD73 antibody to the CD73 in the closed conformation. To achieve this, the ABA injection feature in Biacore 8K was used. For open conformation, the ABA injection sequence started with 60 seconds injection of running buffer. Then, CD73 3-fold serial dilution concentration series prepared from CD73 stock (BPS Bioscience) and running buffer were injected for 180 seconds immediately followed by running buffer for 240 seconds. […]

Series [4] concerns the target T3, cell surface CD73 on MDA-MB-231 cells (Homo sapiens, UniProt P21589).
T3 construct: endogenous in cells; host or cells: MDA-MB-231
T3 sequence (P21589 27-549): T1 sequence (P21589 27-549)
The series can be described thus: Binding to cell surface CD73 by flow cytometry (GMFI), MDA-MB-231 cells. The format is cell-based. Conditions: high levels of surface CD73. The protocol:
(§3) To test the binding of humanized and non-humanized CL25 clones to cell surface CD73, MDA-MB-231 or A375 cells were washed and added to 96-well plates at 5×10^4 cells/well. The cells were stained with the indicated concentration of antibodies for 30 minutes on ice (FIG. 2A and FIG. 2B). Next, the cells were washed and stained using goat anti-mouse secondary conjugated to phycoerythrin (PE) for 30 minutes on ice. The cells were then washed and analyzed by flow cytometry. Geometric mean fluorescence intensity (GMFI) of CD73 staining was graphed (FIG. 2A and FIG. 2B).
Cells were stained with the indicated concentration of antibodies for 1 hour on ice. Cells were then washed and stained goat anti-mouse secondary conjugated to PE for 30 minute on ice. Cells were then washed and analyzed by flow cytometry. The GMFI of CD73 staining is graphed (FIG. 13).

In series [5] the target is T4, cell surface CD73 on A375 cells (Homo sapiens, UniProt P21589).
T4 construct: endogenous in cells; host or cells: A375
T4 sequence (P21589 27-549): T1 sequence (P21589 27-549)
Put plainly: Binding to cell surface CD73 by flow cytometry (GMFI), A375 cells. Format: cell-based. The note with it: moderate levels of surface CD73. The protocol:
as §3

The target of series [6] is T5, CD73 on the cell surface of MDA-MB-231 cells (Homo sapiens, UniProt P21589).
T5 construct: endogenous in cells; host or cells: MDA-MB-231
T5 sequence (P21589 27-549): T1 sequence (P21589 27-549)
Put plainly: CD73 cell surface levels after 24 hour antibody treatment. The format is cell-based. Conditions: 10 μg/mL antibody. The protocol:
Indicated antibodies were added at a final concentration of 10 μg/mL and plates were incubated at 37° C. 5% CO2 for 24 hours. Cells were recovered using Versene and transferred to new 96-well plates. Cells were washed and stained for 30 minutes on ice with 10 μg/mL of non-competing antibody directly conjugated to Dy650. Cells were washed and analyzed by flow cytometry. CD73 cell surface receptor density was determined by Antibody Binding Capacity (ABC) using Quantum Simply Cellular beads.

The target of series [7] is T6, human CD73 (Homo sapiens, UniProt P21589).
T6 sequence (P21589 27-549 limits assumed): T1 sequence (P21589 27-549)
Put plainly: Epitope mapping by hydrogen-deuterium exchange mass spectrometry (HDX). Conditions: Fab in complex with CD73.
Description: To map the epitope of CL25, Hydrogen-deuterium exchange mass spectrometry (HDX) was performed. CD73 was incubated in deuterium oxide either alone or in complex with CL25 Fab. The deuterium exchange was carried out at 20° C. for 0 seconds, 60 seconds, 600 seconds, or 3600 seconds. The exchange reaction was quenched by low pH and the proteins were digested with pepsin/protease VIII. The deuterium levels at the identified peptides were monitored from the mass shift on LC-MS. The deuterium buildup curves over exchange time for all the peptides were plotted vs time. Peptides with significant reduction in deuterium uptakes upon binding to Fab were assigned as the epitopes for each antibody.

The mark [8] stands for this setting: human CD73, closed conformation (100 μM APCP, 10 μM ZnCl2).
[9] abbreviates: human CD73, open conformation, 25° C.
Setting [10] is: cynomolgus CD73, closed conformation.

cynomolgus CD73 (SEQ ID NO: 72), sequence (as listed by the source): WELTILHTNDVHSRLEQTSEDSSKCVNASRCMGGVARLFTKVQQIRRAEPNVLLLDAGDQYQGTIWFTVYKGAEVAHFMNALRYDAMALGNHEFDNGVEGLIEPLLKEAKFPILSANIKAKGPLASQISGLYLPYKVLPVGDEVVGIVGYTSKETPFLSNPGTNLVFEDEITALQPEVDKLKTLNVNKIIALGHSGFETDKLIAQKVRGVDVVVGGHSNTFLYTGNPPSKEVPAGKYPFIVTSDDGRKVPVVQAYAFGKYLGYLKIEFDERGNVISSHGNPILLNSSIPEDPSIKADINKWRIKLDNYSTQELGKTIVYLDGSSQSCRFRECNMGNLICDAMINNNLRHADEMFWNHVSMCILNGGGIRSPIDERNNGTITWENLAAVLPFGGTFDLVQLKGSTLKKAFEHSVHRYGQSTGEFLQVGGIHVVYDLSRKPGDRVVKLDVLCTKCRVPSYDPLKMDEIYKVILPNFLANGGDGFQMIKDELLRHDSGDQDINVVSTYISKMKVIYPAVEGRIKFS

B1: CL25: chimeric anti-human CD73 monoclonal antibody, murine VH SEQ ID NO:26 and VL SEQ ID NO:27 with human IgG1 Fc (antibody, V domains shown)
VH: QVQLQQSGAELARPGASVKLSCRASGYTFTSYGLSWVKQRTGQGLEWIGEIYPGSGNTYYNEKFKGKATLTADKSSSTAYMELRSLTSEDSAVYFCARYDYLGSSYGFDYWGQGTTLTVSS
VL: DIVMTQSHKFMSTSVGDRVSITCKASQDVSTAVAWYQQKPGQSPKLLIYSASYRYNGVPDRFTGSGSGTDFTFTISSVQAEDLAVYYCQQHYNTPYTFGGGTKLEIK
modifications: human IgG1 Fc constant regions without entry
On to B1, for which the values for the ka in series [1] (setting [8]), in series [1] (setting [9]) and in series [2] (setting [10]) were 903000 M⁻¹ s⁻¹, above 1e+06 M⁻¹ s⁻¹ and 936000 M⁻¹ s⁻¹, respectively. The kd in series [1] (setting [8]) was found to be 0.000344 s⁻¹; in series [1] (setting [9]), 0.000394 s⁻¹; in series [2] (setting [10]), 0.000495 s⁻¹; in series [2] (cynomolgus CD73, open conformation) it was 0.000658 s⁻¹. Besides, the KD entry in series [3] (murine CD73, closed conformation (merged ka/kd/KD cell)) is “No Binding”; in series [3] (murine CD73, open conformation (merged ka/kd/KD cell where no binding)) it was “No Binding”. Besides, the “cell binding (GMFI)” value in series [4] and in series [5] was “high potency binding” in each case. Further, in series [6], the “level of CD73 on the cell surface” value is recorded as “decreased the levels of cell surface CD73”. For the same molecule, in series [7], the “epitope determined by HDX-MS” value is given as “TKVQQIRRAEPNVL”.
